Data on one substance can be found in US20030086946A1.

For the assay, the target named is purified human folate receptor (hFR) (human) (UniProt P15328).
UniProt P15328, sequence (P15328 25-234): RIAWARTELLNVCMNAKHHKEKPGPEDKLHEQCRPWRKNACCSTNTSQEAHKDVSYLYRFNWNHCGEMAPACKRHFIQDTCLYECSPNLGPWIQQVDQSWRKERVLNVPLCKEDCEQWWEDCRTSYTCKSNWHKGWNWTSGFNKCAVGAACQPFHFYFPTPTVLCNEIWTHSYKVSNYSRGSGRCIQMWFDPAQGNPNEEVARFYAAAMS

For “wild-type (native) Clostridium septicum alpha toxin”, the hFR Binding (percent of wild type) (% of wild type) came out at 100.
